In article PMC8214733:

T1: sperm associated antigen 6 (SPAG6), full CDS fused to a proteinA-mCitrine tag, O75602
T1 chain: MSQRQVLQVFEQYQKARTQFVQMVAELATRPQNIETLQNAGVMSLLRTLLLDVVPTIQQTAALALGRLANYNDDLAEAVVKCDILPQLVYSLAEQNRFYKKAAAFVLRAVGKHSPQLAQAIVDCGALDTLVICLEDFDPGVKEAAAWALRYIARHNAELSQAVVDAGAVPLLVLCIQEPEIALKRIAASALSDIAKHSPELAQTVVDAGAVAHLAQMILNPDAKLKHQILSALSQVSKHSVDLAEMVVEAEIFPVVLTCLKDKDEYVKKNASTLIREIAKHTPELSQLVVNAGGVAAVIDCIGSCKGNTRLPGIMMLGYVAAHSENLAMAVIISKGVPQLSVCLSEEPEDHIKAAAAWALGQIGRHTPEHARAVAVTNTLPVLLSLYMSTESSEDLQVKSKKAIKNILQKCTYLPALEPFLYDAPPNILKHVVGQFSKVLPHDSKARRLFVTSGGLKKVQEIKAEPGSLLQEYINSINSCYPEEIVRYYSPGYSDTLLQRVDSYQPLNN


How the values were obtained:
Experiment in all cases: BRET assay (LuTHy system)
[1] = biological target: sperm associated antigen 6 (SPAG6), full CDS fused to a proteinA-mCitrine tag (UniProt O75602); conditions: parent: est. 0.41; read off a plot
[2] = biological target: C-terminal portion of DYNC1H1 (1000 AA) fused to a proteinA-mCitrine tag (UniProt Q14204); conditions: parent: est. 0.52; read off a plot
[3] = biological target: C-terminal portion of DYNC1H1 (1000 AA) fused to a proteinA-mCitrine tag, Q14204; conditions: chain shown with the change;; parent: est. 0.52; read off a plot
Sequence of C-terminal portion of DYNC1H1 (1000 AA) fused to a proteinA-mCitrine tag, Q14204 (Q14204 whole entry, the tested form may be a part): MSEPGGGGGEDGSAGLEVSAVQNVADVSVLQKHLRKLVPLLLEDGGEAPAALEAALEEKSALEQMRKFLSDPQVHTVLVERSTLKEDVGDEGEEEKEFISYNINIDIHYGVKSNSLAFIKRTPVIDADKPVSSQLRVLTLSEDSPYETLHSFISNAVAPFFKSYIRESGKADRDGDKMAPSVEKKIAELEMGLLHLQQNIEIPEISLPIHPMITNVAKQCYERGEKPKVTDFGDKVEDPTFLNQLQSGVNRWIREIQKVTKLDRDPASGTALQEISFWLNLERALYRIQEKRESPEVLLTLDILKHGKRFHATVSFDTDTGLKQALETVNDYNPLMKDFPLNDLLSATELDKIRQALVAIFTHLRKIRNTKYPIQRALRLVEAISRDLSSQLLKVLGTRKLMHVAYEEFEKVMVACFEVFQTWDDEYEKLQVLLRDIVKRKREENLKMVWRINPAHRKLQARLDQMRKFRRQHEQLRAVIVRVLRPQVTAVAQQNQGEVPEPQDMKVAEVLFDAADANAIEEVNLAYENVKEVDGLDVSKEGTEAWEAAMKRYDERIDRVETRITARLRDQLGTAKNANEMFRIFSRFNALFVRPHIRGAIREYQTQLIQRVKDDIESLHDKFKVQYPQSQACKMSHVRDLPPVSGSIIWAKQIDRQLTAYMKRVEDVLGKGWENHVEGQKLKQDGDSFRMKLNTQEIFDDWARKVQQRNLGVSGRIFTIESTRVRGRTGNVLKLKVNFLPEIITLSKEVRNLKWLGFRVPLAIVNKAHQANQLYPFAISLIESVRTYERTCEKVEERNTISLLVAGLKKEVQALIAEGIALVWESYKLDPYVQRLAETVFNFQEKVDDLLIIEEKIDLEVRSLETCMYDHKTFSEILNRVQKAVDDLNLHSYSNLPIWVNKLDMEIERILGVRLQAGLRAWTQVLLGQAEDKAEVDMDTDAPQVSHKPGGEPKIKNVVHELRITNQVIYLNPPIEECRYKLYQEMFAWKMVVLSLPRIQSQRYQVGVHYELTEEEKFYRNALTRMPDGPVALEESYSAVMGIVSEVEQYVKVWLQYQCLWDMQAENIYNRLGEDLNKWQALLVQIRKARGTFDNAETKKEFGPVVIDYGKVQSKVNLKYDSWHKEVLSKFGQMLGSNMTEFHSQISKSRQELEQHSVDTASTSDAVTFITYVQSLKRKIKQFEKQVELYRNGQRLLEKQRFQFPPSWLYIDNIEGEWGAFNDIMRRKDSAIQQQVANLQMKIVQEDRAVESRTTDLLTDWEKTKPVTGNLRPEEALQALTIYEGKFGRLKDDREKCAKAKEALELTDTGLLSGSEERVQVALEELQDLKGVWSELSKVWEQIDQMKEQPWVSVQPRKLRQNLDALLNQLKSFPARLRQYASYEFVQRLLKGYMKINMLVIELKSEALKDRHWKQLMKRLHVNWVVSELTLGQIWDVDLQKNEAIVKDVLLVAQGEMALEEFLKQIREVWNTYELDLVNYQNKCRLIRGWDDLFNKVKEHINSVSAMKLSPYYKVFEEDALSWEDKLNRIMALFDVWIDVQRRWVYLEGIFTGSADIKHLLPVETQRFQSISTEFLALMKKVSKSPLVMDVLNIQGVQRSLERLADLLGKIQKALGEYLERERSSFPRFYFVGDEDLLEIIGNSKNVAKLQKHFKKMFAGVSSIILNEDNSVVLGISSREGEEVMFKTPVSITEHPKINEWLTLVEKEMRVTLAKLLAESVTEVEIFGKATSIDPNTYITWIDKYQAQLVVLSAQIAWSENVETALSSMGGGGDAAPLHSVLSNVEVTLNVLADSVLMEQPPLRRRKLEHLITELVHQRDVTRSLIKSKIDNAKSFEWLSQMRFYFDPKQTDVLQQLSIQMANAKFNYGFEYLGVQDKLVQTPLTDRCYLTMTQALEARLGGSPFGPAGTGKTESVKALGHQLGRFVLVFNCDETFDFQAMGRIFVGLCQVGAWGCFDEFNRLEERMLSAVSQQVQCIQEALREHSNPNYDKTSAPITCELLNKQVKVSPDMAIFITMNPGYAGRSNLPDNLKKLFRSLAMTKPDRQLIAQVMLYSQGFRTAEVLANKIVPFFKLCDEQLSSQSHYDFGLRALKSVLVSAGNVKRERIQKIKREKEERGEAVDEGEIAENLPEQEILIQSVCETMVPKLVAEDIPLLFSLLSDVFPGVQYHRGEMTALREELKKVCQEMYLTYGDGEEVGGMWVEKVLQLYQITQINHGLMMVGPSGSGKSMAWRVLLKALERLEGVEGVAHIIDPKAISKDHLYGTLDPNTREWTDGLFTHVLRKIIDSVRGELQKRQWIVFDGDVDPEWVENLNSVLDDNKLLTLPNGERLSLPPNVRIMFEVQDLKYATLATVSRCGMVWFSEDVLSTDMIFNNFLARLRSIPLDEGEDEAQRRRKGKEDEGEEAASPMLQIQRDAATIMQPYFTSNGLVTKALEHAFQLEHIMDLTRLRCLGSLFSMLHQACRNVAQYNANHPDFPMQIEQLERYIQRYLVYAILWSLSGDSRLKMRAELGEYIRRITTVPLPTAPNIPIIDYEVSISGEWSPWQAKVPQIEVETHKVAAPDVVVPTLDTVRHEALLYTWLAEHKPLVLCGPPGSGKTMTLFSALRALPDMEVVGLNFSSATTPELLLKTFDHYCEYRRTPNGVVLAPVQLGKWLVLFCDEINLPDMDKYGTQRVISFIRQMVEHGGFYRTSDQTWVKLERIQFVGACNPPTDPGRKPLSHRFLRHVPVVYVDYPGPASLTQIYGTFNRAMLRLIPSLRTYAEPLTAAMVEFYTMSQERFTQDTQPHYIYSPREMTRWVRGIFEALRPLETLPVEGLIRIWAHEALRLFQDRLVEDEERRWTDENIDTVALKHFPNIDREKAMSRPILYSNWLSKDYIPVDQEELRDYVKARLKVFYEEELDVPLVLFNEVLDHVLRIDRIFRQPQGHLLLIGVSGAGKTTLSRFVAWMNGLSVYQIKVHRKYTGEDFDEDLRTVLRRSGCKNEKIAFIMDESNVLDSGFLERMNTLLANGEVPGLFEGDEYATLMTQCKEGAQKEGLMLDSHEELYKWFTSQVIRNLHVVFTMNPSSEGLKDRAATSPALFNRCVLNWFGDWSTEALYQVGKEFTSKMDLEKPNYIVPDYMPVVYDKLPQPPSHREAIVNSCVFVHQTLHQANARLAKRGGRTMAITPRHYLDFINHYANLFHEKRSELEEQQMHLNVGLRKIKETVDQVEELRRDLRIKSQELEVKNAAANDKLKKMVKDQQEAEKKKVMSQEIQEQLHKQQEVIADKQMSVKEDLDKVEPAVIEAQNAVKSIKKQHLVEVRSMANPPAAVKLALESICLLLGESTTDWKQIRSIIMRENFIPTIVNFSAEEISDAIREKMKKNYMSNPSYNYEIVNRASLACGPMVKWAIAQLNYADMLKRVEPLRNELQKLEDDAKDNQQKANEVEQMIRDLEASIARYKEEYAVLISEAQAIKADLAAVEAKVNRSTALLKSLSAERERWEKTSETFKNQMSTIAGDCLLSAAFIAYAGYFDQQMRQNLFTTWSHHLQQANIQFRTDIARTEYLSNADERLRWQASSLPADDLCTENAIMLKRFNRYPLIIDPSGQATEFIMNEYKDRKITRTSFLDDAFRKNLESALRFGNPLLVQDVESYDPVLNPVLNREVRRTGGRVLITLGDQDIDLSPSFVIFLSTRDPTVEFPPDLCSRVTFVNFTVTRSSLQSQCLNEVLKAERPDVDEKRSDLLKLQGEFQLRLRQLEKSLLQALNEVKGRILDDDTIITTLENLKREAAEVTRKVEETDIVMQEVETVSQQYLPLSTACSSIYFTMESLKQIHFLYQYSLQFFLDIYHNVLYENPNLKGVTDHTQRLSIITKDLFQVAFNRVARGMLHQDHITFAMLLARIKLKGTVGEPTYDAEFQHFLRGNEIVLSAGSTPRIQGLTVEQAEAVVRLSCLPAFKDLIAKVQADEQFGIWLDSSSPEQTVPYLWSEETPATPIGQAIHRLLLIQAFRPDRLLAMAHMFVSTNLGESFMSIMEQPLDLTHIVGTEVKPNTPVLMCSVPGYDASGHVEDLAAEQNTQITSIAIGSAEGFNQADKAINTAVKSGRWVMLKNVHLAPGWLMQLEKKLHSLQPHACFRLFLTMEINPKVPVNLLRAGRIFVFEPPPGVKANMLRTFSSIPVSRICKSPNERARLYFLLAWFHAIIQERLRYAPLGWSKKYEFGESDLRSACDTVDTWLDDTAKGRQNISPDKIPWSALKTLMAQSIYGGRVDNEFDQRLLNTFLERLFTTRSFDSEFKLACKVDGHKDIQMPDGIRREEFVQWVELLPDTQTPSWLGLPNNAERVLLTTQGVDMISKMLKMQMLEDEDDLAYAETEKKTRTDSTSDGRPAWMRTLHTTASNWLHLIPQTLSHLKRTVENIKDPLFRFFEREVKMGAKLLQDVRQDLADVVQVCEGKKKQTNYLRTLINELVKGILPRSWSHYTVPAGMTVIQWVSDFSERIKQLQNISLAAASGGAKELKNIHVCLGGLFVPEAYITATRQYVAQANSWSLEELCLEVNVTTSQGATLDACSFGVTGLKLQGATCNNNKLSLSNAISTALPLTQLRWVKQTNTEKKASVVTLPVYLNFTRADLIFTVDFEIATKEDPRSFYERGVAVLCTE

[4] = biological target: T1, sperm associated antigen 6 (SPAG6), …; conditions: chain shown with the change;; parent: est. 0.41; read off a plot

Molecule | response [1] | response [2] | response [3] | response [4]
coiled-coil domain-containing protein 103 (CCDC103), full-length coding sequence fused to a Nano-luciferase (NL)-Myc tag (from UniProt Q8IW40) p.Ala11Pro | 0.33 | 0.55 |  | 
coiled-coil domain-containing protein 103 (CCDC103), full-length coding sequence fused to a Nano-luciferase (NL)-Myc tag, Q8IW40 p.His154Pro (protein) MERNDIINFKALEKELQAALTADEKYKRENAAKLRAVEQRVASYEEFRGIVLASHLKPLERKDKMGGKRTVPWNCHTIQGRTFQDVATEISPEKAPLQPETSADFYRDWRRHLPSGPERYQALLQLGGPRLGCLFQTDVGFGLLGELLVALADPVGPADRAAVLGILCSLASTGRFTLNLSLLSRAERESCKGLFQKLQAMGNPRSVKEGLSWEEQGLEEQSGGLQEEERLLQELLELYQVD |  |  | 0.38 | 0.22
